Tests used:
Assay in all cases: cell-based or functional assay
[1] = target: HIV-1 APV-13 envelope glycoprotein (Env) on pseudovirus (HIV-1)
[2] = target: HIV-1 92RW020 Env (pseudovirus) (HIV-1 92RW020)
[3] = target: HIV-1 Env of isolate MGRM-Chronic-B-024 (subtype B) (HIV-1)
[4] = target: HIV-1 envelope glycoprotein (Env) of isolate MGRM-Chronic-B-023, on pseudovirus (HIV-1)
[5] = target: HIV-1 Env of isolate MGRM-C-027 (subtype C), on pseudovirus (HIV-1)
[6] = target: HIV-1 envelope glycoprotein (Env) of isolate MGRM-Chronic-B-012, on pseudovirus (HIV-1)
[7] = target: HIV-1 envelope glycoprotein (Env) of isolate CAAN.A2, on pseudovirus (HIV-1)
[8] = target: HIV-1 Env of isolate PVO.4 (subtype B) (HIV-1)
[9] = target: HIV-1 Env of isolate MGRM-C-024 (subtype C), on pseudovirus (HIV-1)
[10] = target: HIV-1 APV13 Env (pseudovirus) (HIV-1)
[11] = target: HIV-1 APV17 Env (pseudovirus) (HIV-1)
[12] = target: HIV-1 MGRM-C-026 Env (pseudovirus) (HIV-1)
[13] = target: HIV-1 94UG103 Env (pseudovirus) (HIV-1)
[14] = target: HIV-1 MGRM-D-001 Env (pseudovirus) (HIV-1)
[15] = target: HIV-1 MGRM-C-027 Env (pseudovirus) (HIV-1)
[16] = target: aMLV envelope on pseudovirus (negative control)
[17] = target: HIV-1 JR-CSF Env H330A (HIV-1 isolate JR-CSF) (UniProt P20871)
[18] = target: HIV-1 JR-CSF Env I415A (HIV-1 (isolate JR-CSF)) (UniProt P20871)
[19] = target: HIV-1 JR-CSF Env D325A (HIV-1 isolate JR-CSF) (UniProt P20871)
[20] = target: HIV-1 JR-CSF Env I309A (HIV-1 JR-CSF) (UniProt P20871)
[21] = target: HIV-1 JR-CSF Env Q337A (HIV-1 isolate JR-CSF) (UniProt P20871)
[22] = target: HIV-1 JR-CSF Env N386A (HIV-1 isolate JR-CSF) (UniProt P20871)
[23] = target: HIV-1 JR-CSF Env I414A (HIV-1 (isolate JR-CSF)) (UniProt P20871)
[24] = target: HIV-1 JR-CSF Env I326A (HIV-1 isolate JR-CSF) (UniProt P20871)
[25] = target: HIV-1 JR-CSF Env S306A (HIV-1 JR-CSF) (UniProt P20871)
[26] = target: HIV-1 JR-CSF Env G324A (HIV-1 isolate JR-CSF) (UniProt P20871)
[27] = target: HIV-1 JR-CSF Env I307A (HIV-1 JR-CSF) (UniProt P20871)
[28] = target: HIV-1 JR-CSF Env N295A (HIV-1 JR-CSF) (UniProt P20871)
[29] = target: HIV-1 JR-CSF Env F210A (HIV-1 JR-CSF) (UniProt P20871)
[30] = target: HIV-1 JR-CSF Env S199A (HIV-1 JR-CSF) (UniProt P20871)
[31] = target: HIV-1 JR-CSF Env S387A (HIV-1 (isolate JR-CSF)) (UniProt P20871)
[32] = target: HIV-1 JR-CSF Env T297A (HIV-1 JR-CSF) (UniProt P20871)
[33] = target: HIV-1 JR-CSF Env K421A (HIV-1 (isolate JR-CSF)) (UniProt P20871)
[34] = target: HIV-1 JR-CSF Env I424A (HIV-1 (isolate JR-CSF)) (UniProt P20871)
[35] = target: HIV-1 JR-CSF Env R304A (HIV-1 JR-CSF) (UniProt P20871)
[36] = target: HIV-1 JR-CSF Env T303A (HIV-1 JR-CSF) (UniProt P20871)
[37] = target: HIV-1 JR-CSF Env D417A (HIV-1 (isolate JR-CSF)) (UniProt P20871)
[38] = target: HIV-1 JR-CSF Env N392Q (HIV-1 (isolate JR-CSF)) (UniProt P20871)
[39] = target: HIV-1 Env of isolate MGRM-D-029 (HIV-1)

## 1443_C16 (PG16) (TCN-116) (antibody)
[1]
  IC90 (pseudovirus neutralization): > 50 µg/mL
[2]
  IC50 (ug/ml), neutralization: 0.09 µg/mL

## 1496_C09 (PG9) (TCN-109) (antibody)
[3]
  IC50 (µg/mL), pseudovirus neutralization: 0.222 µg/mL
[4]
  IC50, pseudovirus neutralization: 0.027 µg/mL
[5]
  IC50 (µg/mL), pseudovirus neutralization: 5.36 µg/mL
[6]
  IC50, pseudovirus neutralization: 0.2 µg/mL
[7]
  IC50, pseudovirus neutralization: 19.3 µg/mL
[8]
  IC50 (µg/mL), pseudovirus neutralization: 24.8 µg/mL
[2]
  IC50 (ug/ml), neutralization: 0.1 µg/mL
[9]
  IC50 (µg/mL), pseudovirus neutralization: 0.227 µg/mL

## 4838_L06 (PGT-121) (antibody)
[10]
  neutralization IC80: 1.31 µg/mL
  neutralization IC90: 2.8 µg/mL
  neutralization IC95: 5.15 µg/mL
[11]
  neutralization IC80: 0.371 µg/mL
  neutralization IC90: 0.799 µg/mL
  neutralization IC95: 1.55 µg/mL
[12]
  neutralization IC95: 0.0687 µg/mL
[13]
  neutralization IC80: 8.85 µg/mL
[14]
  neutralization IC80: 3.29 µg/mL
  neutralization IC90: 6.26 µg/mL
  neutralization IC95: 9.39 µg/mL
[15]
  neutralization IC80: 0.0829 µg/mL
  neutralization IC90: 0.374 µg/mL
  neutralization IC95: 3.14 µg/mL

## 4858_P08 (PGT-123) (antibody)
[16]
  IC50, pseudovirus neutralization: > 10 µg/mL
  IC80, pseudovirus neutralization: > 10 µg/mL
  IC90 (pseudovirus neutralization): > 10 µg/mL
  IC95, pseudovirus neutralization: > 10 µg/mL

## 5123_A06 (PGT-125) (antibody)
[16]
  neutralization IC50: > 10 µg/mL
  neutralization IC80: > 10 µg/mL
  neutralization IC90: > 10 µg/mL
  neutralization IC95: > 10 µg/mL

## 5141_B17 (PGT-126) (antibody)
[10]
  IC50: 0.012 µg/mL
  IC80: 0.0411 µg/mL
  IC90: 0.084 µg/mL
  IC95: 0.162 µg/mL
[11]
  IC50: 0.501 µg/mL
  IC80: 4.43 µg/mL
  IC90: > 10 µg/mL
  IC95: > 10 µg/mL
[12]
  IC50: 0.0076 µg/mL
  IC80: 0.0345 µg/mL
  IC90: 0.0831 µg/mL
  IC95: 0.185 µg/mL
[13]
  IC50: 0.0091 µg/mL
  IC80: 0.0316 µg/mL
  IC90: 0.0655 µg/mL
  IC95: 0.128 µg/mL
[14]
  IC50: 0.0639 µg/mL
  IC80: 0.333 µg/mL
  IC90: 0.832 µg/mL
  IC95: 1.8 µg/mL
[15]
  IC50: 1.14 µg/mL
  IC80: > 10 µg/mL
  IC90: > 10 µg/mL
  IC95: > 10 µg/mL

## PGT-121 (antibody)
[17]
  Fold IC50 increase relative to wild-type: 0.8 fold
[18]
  Fold IC50 increase relative to wild-type: 0.6 fold
[19]
  Fold IC50 increase relative to wild-type: 2 fold
[20]
  Fold IC50 increase relative to wild-type: 1.1 fold
[21]
  Fold IC50 increase relative to wild-type: 1 fold
[22]
  Fold IC50 increase relative to wild-type: 1.3 fold
[23]
  Fold IC50 increase relative to wild-type: 0.5 fold
[24]
  Fold IC50 increase relative to wild-type: 0.7 fold
[25]
  Fold IC50 increase relative to wild-type: 0.7 fold
[26]
  Fold IC50 increase relative to wild-type: 16.6 fold
[27]
  Fold IC50 increase relative to wild-type: 3.7 fold
[28]
  Fold IC50 increase relative to wild-type: 0.6 fold
[29]
  Fold IC50 increase relative to wild-type: 1.5 fold
[30]
  Fold IC50 increase relative to wild-type: 0.8 fold
[31]
  Fold IC50 increase relative to wild-type: 0.5 fold
[32]
  Fold IC50 increase relative to wild-type: 0.7 fold
[33]
  Fold IC50 increase relative to wild-type: 1.3 fold
[34]
  Fold IC50 increase relative to wild-type: 0.9 fold
[35]
  Fold IC50 increase relative to wild-type: 1.7 fold
[36]
  Fold IC50 increase relative to wild-type: 0.7 fold
[37]
  Fold IC50 increase relative to wild-type: 0.7 fold
[38]
  Fold IC50 increase relative to wild-type: 0.9 fold

## PGT-122 (antibody)
[17]
  Fold IC50 increase relative to wild-type: 0.5 fold
[18]
  Fold IC50 increase relative to wild-type: 0.4 fold
[19]
  Fold IC50 increase relative to wild-type: 44 fold
[20]
  Fold IC50 increase relative to wild-type: 2.1 fold
[21]
  Fold IC50 increase relative to wild-type: 0.5 fold
[22]
  Fold IC50 increase relative to wild-type: 1.2 fold
[23]
  Fold IC50 increase relative to wild-type: 0.5 fold
[24]
  Fold IC50 increase relative to wild-type: 0.6 fold
[25]
  Fold IC50 increase relative to wild-type: 0.5 fold
[26]
  Fold IC50 increase relative to wild-type: 12.5 fold
[27]
  Fold IC50 increase relative to wild-type: 3.8 fold
[28]
  Fold IC50 increase relative to wild-type: 0.7 fold
[29]
  Fold IC50 increase relative to wild-type: 2.6 fold
[30]
  Fold IC50 increase relative to wild-type: 1 fold
[31]
  Fold IC50 increase relative to wild-type: 0.9 fold
[32]
  Fold IC50 increase relative to wild-type: 0.6 fold
[33]
  Fold IC50 increase relative to wild-type: 1.2 fold
[34]
  Fold IC50 increase relative to wild-type: 0.8 fold
[35]
  Fold IC50 increase relative to wild-type: 0.7 fold
[36]
  Fold IC50 increase relative to wild-type: 2.5 fold
[37]
  Fold IC50 increase relative to wild-type: 0.5 fold
[38]
  Fold IC50 increase relative to wild-type: 1 fold

## PGV04 (antibody)
[3]
  IC50 (µg/mL), pseudovirus neutralization: 2.52 µg/mL
[4]
  IC50, pseudovirus neutralization: 0.139 µg/mL
[5]
  IC50 (µg/mL), pseudovirus neutralization: 2.76 µg/mL
[6]
  IC50, pseudovirus neutralization: > 50 µg/mL
[39]
  IC50 (µg/mL), pseudovirus neutralization: 1.56 µg/mL
[7]
  IC50, pseudovirus neutralization: 2.26 µg/mL
[8]
  IC50 (µg/mL), pseudovirus neutralization: 0.454 µg/mL
[9]
  IC50 (µg/mL), pseudovirus neutralization: > 50 µg/mL

## VRC01 (antibody)
[39]
  IC50, pseudovirus neutralization: 3.22 µg/mL

## b12 (antibody)
[1]
  IC90 (pseudovirus neutralization): > 50 µg/mL

Reference: US20200024330A1
